Publication PMC4561730 (Molecular and Cellular Biology, 2015)

Target: the molecule itself
Test: negative-staining electron microscopy

B1: recombinant glutathione S-transferase (GST)-SAM protein (GST fusion of the mouse Bicc1 SAM domain) (domain or fragment, UniProt Q99MQ1 875-938, looked up)
chain: FKGSDLPELFSKLGLGKYTDVFQQQEIDLQTFLTLTDQDLKELGITTFGARRKMLLAISELSKN
  stoichiometry N: ~40 units
